Laboratory results as given in patent US20180201658A1 (MIT, published 2018).
Blank lines part the entries; values can stand above or below the binder they belong to.

Experiments:
human Bcl-xL [1] = target: T1, human Bcl-xL (human, UniProt Q07817 1-209); test: cell-based or functional assay
human Bcl-2 [2] = target: T2, human Bcl-2 (human, UniProt P10415 1-217, limits assumed); test: cell-based or functional assay
murine Mcl-1 = murine Mcl-1 (murine, UniProt P97287 1-331, limits assumed); test: cell-based or functional assay
human Bcl-xL [3] = target: T1, human Bcl-xL; test: fluorescence anisotropy (FIG. 1)
human Bfl-1 = target: T3, human Bfl-1 (human, UniProt Q16548 1-151, limits assumed); test: fluorescence anisotropy (FIG. 1)
T3 construct: Also used for the Bfl-1 of Pfeiffer cells in the functional rows
T3 sequence (looked up): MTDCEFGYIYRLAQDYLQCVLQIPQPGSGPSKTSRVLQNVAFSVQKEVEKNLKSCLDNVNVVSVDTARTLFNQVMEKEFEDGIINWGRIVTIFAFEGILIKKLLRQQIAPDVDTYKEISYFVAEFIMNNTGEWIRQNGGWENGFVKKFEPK

human Bcl-w = target: T4, human Bcl-w (human, UniProt Q92843 1-164, limits assumed); test: fluorescence anisotropy (FIG. 1)
T4 sequence (looked up): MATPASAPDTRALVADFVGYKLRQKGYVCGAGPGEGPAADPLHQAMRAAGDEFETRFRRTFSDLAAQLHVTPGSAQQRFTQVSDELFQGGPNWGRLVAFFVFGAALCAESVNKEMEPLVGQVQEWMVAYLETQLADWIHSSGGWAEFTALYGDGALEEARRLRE

human Bcl-2 [4] = target: T2, human Bcl-2; test: fluorescence anisotropy (FIG. 1)

T2 sequence (P10415 1-217 limits assumed): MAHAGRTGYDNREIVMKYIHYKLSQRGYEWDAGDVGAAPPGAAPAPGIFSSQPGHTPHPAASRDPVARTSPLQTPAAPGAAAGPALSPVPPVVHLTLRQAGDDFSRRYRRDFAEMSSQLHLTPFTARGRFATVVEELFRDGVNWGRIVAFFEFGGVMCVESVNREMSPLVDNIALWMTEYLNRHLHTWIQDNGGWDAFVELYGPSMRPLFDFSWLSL
T1 sequence (Q07817 1-209): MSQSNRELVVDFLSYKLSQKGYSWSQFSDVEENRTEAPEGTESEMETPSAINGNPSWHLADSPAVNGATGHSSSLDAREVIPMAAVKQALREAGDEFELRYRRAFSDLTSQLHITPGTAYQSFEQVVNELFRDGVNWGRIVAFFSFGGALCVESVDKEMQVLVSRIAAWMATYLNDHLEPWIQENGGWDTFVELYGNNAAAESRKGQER
Chain of murine Mcl-1 (P97287 whole entry): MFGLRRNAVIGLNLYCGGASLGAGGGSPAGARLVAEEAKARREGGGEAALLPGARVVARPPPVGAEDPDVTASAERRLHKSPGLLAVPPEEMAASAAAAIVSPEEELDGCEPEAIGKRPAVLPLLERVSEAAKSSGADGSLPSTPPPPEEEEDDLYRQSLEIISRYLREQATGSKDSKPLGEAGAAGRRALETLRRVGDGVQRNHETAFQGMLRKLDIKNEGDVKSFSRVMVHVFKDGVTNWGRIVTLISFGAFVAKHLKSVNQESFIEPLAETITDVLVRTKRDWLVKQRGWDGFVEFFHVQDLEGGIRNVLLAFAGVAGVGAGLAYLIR

Binder: RPEIWITQELRRIGDEFNAYYAR (Bim BH3 point mutant) [Bim_A2eT]
fold reduction in binding relative to Bim (human Bcl-xL [3]): 6 fold
fold reduction in binding relative to Bim (human Bfl-1): > 20 fold
fold reduction in binding relative to Bim (human Bcl-w): > 20 fold
fold reduction in binding relative to Bim (human Bcl-2 [4]): > 20 fold

Binder: RPEIWITQELRRIGDEINAYYAR [Bim_A2eT_F4aI]
fold decrease in binding relative to Bim_A2eT (human Bcl-xL [3]): 6 fold
fold decrease in binding relative to Bim_A2eT (human Bcl-2 [4]): 3 fold

Binder: RPEIWMTQELRRIGDEFNAYYAR [Bim_A2eT_I2dM]
fold reduction in binding relative to Bim_A2eT (human Bcl-xL [3]): ~4 fold
fold reduction in binding relative to Bim_A2eT (human Bfl-1): ~4 fold
fold reduction in binding relative to Bim_A2eT (human Bcl-w): ~4 fold
fold reduction in binding relative to Bim_A2eT (human Bcl-2 [4]): ~4 fold

Binder: RPEIWITQELRRLGDEFNAYYAR [Bim_A2eT_I3dL]
fold reduction in binding relative to Bim_A2eT (human Bfl-1): 4 fold

Second part, the binder after the results:

EC50 of mitochondrial depolarization, BH3 profiling, MDA-MB-231 cells (human Bcl-xL [1]): > 100 µM
EC50 of mitochondrial depolarization, BH3 profiling, Bcl-2-dependent line (human Bcl-2 [2]): > 100 µM
Binder: AELPPEFAAQLRKIGDKVYC [NoxaA BH3 peptide from murine Noxa, unlabeled]

EC50 of mitochondrial depolarization, BH3 profiling, Mcl-1/Myc 2640 cells (murine Mcl-1): 70 nM
Binder: RPEIWMTQGLRRLGDEINAYYAR [MS1, unlabeled]

EC50 of mitochondrial depolarization, BH3 profiling, MDA-MB-231 cells (human Bcl-xL [1]): > 100 µM
EC50 of mitochondrial depolarization, BH3 profiling, Bcl-2-dependent line (human Bcl-2 [2]): > 100 µM
EC50 of mitochondrial depolarization, BH3 profiling, Mcl-1/Myc 2640 cells (murine Mcl-1): 860 nM
Binder: RPEIWLTQHLQRLGDEINAYYAR [MS3 as used in BH3 profiling]
